Test results reported in patent US20140031526A1 (YISSUM RESEARCH DEVELOPMENT COMPANY OF THE HEBREW …, published 2014).

Target: the molecule itself
Assay: FPLC gel filtration before and after sonication (self-association)

B1: 6H-15mer-CBD fusion protein (dragline spider silk 15mer fused to Clostridium cellulovorans CBDclos, with His tags and S-tag) (other)
chain: MHHHHHHSSGLVPRGSGMKETAAAKFERQHMDSPDLGTDDDDKAMASGRGGLGGQGAGAAAAAGGAGQGGYGGLGSQGTSGRGGLGGQGAGAAAAAGGAGQGGYGGLGSQGTSGRGGLGGQGAGAAAAAGGAGQGGYGGLGSQGTSGRGGLGGQGAGAAAAAGGAGQGGYGGLGSQGTSGRGGLGGQGAGAAAAAGGAGQGGYGGLGSQGTSGRGGLGGQGAGAAAAAGGAGQGGYGGLGSQGTSGRGGLGGQGAGAAAAAGGAGQGGYGGLGSQGTSGRGGLGGQGAGAAAAAGGAGQGGYGGLGSQGTSGRGGLGGQGAGAAAAAGGAGQGGYGGLGSQGTSGRGGLGGQGAGAAAAAGGAGQGGYGGLGSQGTSGRGGLGGQGAGAAAAAGGAGQGGYGGLGSQGTSGRGGLGGQGAGAAAAAGGAGQGGYGGLGSQGTSGRGGLGGQGAGAAAAAGGAGQGGYGGLGSQGTSGRGGLGGQGAGAAAAAGGAGQGGYGGLGSQGTSGRGGLGGQGAGAAAAAGGAGQGGYGGLGSQGTSMAATSSMSVEFYNSNKAAQTNSITPIIKITNTADSDLNLNDVKVRYYYTSDGTQGQTFWGDHAGALLGNSYVDNTGKVTANFVKETASPTSTYDTYVEFGFASGAATLKKGQFITIQGRITKSDWSNYAQTNDYSFDASSSTPVVNPKVTGYIGGAKVLGTAPGPDVPSSIINPTSATFDLEHHHHHH
notes: Expressed in E. coli BL21(DE3) from pET30a and purified on Ni-NTA; also called Silk-CBD; 6H-Silk-CBD
  binding result: binds
